# Results published in article PMC4066111 (Nature, 2014).
# B1: Mina53 (MYC-induced nuclear antigen), aa 26-465, wild type (enzyme)
# chain: AAGGPSALNFDSPSSLFESLISPIKTETFFKEFWEQKPLLIQRDDPALATYYGSLFKLTDLKSLCSRGMYYGRDVNVCRCVNGKKKVLNKDGKAHFLQLRKDFDQKRATIQFHQPQRFKDELWRIQEKLECYFGSLVGSNVYITPAGSQGLPPHYDDVEVFILQLEGEKHWRLYHPTVPLAREYSVEAEERIGRPVHEFMLKPGDLLYFPRGTIHQADTPAGLAHSTHVTISTYQNNSWGDFLLDTISGLVFDTAKEDVELRTGIPRQLLLQVESTTVATRRLSGFLRTLADRLEGTKELLSSDMKKDFIMHRLPPYSAGDGAELSTPGGKLPRLDSVVRLQFKDHIVLTVLPDQDQSDEAQEKMVYIYHSLKNSRETHMMGNEEETEFHGLRFPLSHLDALKQIWNSPAISVKDLKLTTDEEKESLVLSLWTECLIQVV
# B2: NO66 (Nucleolar protein 66), aa 183-641, wild type (enzyme)
# chain: SPLRRVLAELNRIPSSRRRAARLFEWLIAPMPPDHFYRRLWEREAVLVRRQDHTYYQGLFSTADLDSMLRNEEVQFGQHLDAARYINGRRETLNPPGRALPAAAWSLYQAGCSLRLLCPQAFSTTVWQFLAVLQEQFGSMAGSNVYLTPPNSQGFAPHYDDIEAFVLQLEGRKLWRVYRPRVPTEELALTSSPNFSQDDLGEPVLQTVLEPGDLLYFPRGFIHQAECQDGVHSLHLTLSTYQRNTWGDFLEAILPLAVQAAMEENVEFRRGLPRDFMDYMGAQHSDSKDPRRTAFMEKVRVLVARLGHFAPVDAVADQRAKDFIHDSLPPVLTDRERALSVYGLPIRWEAGEPVNVGAQLTTETEVHMLQDGIARLVGEGGHLFLYYTVENSRVYHLEEPKCLEIYPQQADAMELLLGSYPEFVRVGDLPCDSVEDQLSLATTLYDKGLLLTKMPLALN
# B3: ycfD from Escherichia coli, full length, wild type (enzyme)
# chain: MEYQLTLNWPDFLERHWQKRPVVLKRGFNNFIDPISPDELAGLAMESEVDSRLVSHQDGKWQVSHGPFESYDHLGETNWSLLVQAVNHWHEPTAALMRPFRELPDWRIDDLMISFSVPGGGVGPHLDQYDVFIIQGTGRRRWRVGEKLQMKQHCPHPDLLQVDPFEAIIDEELEPGDILYIPPGFPHEGYALENAMNYSVGFRAPNTRELISGFADYVLQRELGGNYYSDPDVPPRAHPADVLPQEMDKLREMMLELINQPEHFKQWFGEFISQSRHELDIAPPEPPYQPDEIYDALKQGEVLVRLGGLRVLRIGDDVYANGEKIDSPHRPALDALASNIALTAENFGDALEDPSFLAMLAALVNSGYWFFEG
# Tests used:
# [1] = molecular target: B2; assay: cross-linking
# [2] = molecular target: L299C/C300S NO66 (aa 183-641) (human, UniProt Q9H6W3 183-641, L299C | C300S); assay: cross-linking
# [3] = molecular target: the molecule itself; assay: crystal structure
# [4] = molecular target: Y209C Mina53 (aa 26-465) (human, UniProt Q8IUF8 26-465, Y209C); assay: cross-linking
Binder,binding result [3],other results
NPVEHPFGGGNHQHICKPST [rpL8 (205-224) G220C peptide],–,binding result [1]: binds; binding result [2]: binds
B1,binds,–
B2,binds,–
B3,binds,–
RGNAGCLHHHRINFDKYHP [rpL27a (32-50) G37C peptide],–,binding result [4]: binds
